Series [1] deals with T1, StXPB;StBax1ΔC (Sulfurisphaera tokodaii;Sulfurisphaera …, UniProt Q970I2;Q970I1 2-439;2-373, |).
T1 sequence 1: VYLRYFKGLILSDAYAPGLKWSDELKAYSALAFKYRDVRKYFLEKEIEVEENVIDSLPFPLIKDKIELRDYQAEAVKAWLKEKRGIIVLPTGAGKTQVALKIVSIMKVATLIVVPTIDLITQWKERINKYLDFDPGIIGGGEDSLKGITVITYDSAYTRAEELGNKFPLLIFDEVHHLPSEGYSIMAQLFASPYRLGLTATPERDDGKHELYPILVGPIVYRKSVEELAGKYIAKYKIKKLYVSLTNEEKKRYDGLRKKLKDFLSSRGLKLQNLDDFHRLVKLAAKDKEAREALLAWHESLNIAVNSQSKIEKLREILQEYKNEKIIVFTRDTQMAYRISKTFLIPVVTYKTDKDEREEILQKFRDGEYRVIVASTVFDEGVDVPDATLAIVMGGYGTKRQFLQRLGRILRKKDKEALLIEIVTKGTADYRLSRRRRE
T1 sequence 2: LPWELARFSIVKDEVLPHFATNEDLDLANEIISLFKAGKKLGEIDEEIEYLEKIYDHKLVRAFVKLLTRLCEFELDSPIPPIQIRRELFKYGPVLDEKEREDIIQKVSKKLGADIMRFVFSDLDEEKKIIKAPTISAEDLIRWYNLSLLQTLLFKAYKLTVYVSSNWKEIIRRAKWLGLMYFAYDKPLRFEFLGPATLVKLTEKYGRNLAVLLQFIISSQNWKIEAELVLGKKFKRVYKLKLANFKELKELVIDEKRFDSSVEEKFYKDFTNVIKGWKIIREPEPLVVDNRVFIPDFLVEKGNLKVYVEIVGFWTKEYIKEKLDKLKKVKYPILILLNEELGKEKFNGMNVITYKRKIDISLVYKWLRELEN
Briefly: EMSA; EMSA: 25 mM Tris-Cl pH 7.5, 100 mM NaCl, 5% glycerol, 1 mM DTT, room temperature 40 min; 0.8 uM forked DNA or 0.3 uM bubble DNA; 4% TBE native gel, ethidium bromide. The conditions noted are these: protein: recombinant;recombinant; tags: N-terminal His8 (PreScission; removed);none stated (pET15b; copurified with His8-XPB); copies: 1;1; fork: 22 bp duplex, 10 nt arms. In general terms: Mobility shift assays separate free from complexed probe on a gel.

Another series deals with T2, StXPB;StBax1 (Sulfurisphaera tokodaii;Sulfurisphaera …, UniProt Q970I2;Q970I1 2-439;1-481, |).
T2 sequence 1: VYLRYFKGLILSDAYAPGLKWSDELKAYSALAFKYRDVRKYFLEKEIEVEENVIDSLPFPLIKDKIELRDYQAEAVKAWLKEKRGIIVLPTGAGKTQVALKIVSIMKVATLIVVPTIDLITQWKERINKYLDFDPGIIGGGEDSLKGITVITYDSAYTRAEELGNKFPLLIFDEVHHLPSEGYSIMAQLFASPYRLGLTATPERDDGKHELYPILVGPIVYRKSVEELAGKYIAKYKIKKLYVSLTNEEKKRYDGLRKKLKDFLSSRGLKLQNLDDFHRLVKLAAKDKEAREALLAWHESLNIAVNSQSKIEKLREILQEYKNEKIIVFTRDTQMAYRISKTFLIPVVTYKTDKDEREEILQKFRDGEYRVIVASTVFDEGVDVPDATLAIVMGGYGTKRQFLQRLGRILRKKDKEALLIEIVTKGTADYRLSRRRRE
T2 sequence 2: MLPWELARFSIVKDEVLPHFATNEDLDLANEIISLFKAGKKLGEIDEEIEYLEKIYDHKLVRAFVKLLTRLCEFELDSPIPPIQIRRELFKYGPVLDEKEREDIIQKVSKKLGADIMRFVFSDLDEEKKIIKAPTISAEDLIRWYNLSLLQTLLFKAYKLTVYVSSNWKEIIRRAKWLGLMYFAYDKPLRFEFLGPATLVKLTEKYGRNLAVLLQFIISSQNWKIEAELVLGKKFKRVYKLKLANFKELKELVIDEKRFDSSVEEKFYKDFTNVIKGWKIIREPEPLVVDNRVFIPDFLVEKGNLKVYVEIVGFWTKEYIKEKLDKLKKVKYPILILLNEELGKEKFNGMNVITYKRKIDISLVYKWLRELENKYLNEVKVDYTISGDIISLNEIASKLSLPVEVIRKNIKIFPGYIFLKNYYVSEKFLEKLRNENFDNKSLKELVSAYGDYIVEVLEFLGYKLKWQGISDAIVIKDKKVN
Described as above. The settings on record: protein: recombinant;recombinant; tags: N-terminal His8 (PreScission; removed);; copies: 1;1; fork: 22 bp duplex, 10 nt arms.

The target in series [2] is human XPB;human p52;human p8;human XPA (human;human;human;human, UniProt P19447;Q92759;Q6ZYL4;P23025 1-782;1-462;1-71;1-273, |||). In words: EMSA; stable complex; EMSA: 25 mM Tris-Cl pH 7.5, 100 mM NaCl, 5% glycerol, 1 mM DTT, room temperature 40 min; 0.8 uM forked DNA or 0.3 uM bubble DNA; 4% TBE native gel, ethidium bromide. The conditions noted are these: protein: recombinant;recombinant;recombinant;recombinant; tags: N-terminal His6 (PreScission; removed);;;N-terminal His6-SUMO (removed); copies: 1;1;1;1; fork: 22 bp duplex, 10 nt arms.
human XPB;human p52;human p8;human XPA, sequence (P19447 whole entry, chain 1 of 4): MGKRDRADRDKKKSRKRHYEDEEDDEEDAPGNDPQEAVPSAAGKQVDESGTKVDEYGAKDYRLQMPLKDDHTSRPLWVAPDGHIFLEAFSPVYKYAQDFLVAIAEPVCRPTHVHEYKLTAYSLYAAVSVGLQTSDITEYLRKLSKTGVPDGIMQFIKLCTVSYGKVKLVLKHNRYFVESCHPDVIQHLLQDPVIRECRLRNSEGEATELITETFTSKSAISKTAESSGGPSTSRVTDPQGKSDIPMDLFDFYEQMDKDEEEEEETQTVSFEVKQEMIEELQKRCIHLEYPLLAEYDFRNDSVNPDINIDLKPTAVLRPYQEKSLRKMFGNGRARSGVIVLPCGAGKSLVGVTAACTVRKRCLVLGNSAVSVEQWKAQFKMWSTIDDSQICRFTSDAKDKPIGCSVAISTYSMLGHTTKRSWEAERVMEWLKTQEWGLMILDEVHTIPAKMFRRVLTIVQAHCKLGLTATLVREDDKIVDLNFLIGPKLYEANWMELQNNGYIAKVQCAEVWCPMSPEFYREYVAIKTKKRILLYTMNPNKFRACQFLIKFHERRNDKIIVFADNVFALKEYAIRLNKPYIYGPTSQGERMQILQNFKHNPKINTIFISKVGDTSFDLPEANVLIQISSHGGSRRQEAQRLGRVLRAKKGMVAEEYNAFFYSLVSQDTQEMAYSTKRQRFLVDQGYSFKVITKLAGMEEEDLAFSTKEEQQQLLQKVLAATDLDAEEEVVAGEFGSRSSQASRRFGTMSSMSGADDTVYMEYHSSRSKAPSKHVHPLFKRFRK
human XPB;human p52;human p8;human XPA, sequence (Q92759 whole entry, chain 2 of 4): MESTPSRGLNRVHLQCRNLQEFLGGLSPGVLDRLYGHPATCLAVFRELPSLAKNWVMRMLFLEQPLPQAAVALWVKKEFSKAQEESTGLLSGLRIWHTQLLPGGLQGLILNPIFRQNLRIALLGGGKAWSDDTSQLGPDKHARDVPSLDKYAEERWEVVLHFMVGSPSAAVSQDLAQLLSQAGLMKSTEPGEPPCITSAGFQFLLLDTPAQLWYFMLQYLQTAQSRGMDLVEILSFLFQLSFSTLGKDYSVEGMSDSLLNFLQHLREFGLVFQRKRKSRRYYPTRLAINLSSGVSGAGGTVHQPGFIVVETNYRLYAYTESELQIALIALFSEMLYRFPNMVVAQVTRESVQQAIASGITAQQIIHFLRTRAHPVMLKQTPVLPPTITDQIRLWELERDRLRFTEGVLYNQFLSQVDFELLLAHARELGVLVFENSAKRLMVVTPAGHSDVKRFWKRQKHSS
human XPB;human p52;human p8;human XPA, sequence (Q6ZYL4 whole entry, chain 3 of 4): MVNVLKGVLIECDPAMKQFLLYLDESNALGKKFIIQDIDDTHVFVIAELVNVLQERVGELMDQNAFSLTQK
human XPB;human p52;human p8;human XPA, sequence (P23025 whole entry, chain 4 of 4): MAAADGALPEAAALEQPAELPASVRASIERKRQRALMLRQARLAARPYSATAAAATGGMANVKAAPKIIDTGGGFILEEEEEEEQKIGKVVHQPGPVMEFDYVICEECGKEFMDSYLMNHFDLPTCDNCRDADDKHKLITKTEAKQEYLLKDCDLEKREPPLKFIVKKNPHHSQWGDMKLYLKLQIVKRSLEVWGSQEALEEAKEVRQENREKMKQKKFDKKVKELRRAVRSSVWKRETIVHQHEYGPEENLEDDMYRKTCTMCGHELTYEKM

For the next series, the target named is T3, StXPB F278A (Sulfurisphaera tokodaii, UniProt Q970I2 2-439, F278A).
T3 sequence: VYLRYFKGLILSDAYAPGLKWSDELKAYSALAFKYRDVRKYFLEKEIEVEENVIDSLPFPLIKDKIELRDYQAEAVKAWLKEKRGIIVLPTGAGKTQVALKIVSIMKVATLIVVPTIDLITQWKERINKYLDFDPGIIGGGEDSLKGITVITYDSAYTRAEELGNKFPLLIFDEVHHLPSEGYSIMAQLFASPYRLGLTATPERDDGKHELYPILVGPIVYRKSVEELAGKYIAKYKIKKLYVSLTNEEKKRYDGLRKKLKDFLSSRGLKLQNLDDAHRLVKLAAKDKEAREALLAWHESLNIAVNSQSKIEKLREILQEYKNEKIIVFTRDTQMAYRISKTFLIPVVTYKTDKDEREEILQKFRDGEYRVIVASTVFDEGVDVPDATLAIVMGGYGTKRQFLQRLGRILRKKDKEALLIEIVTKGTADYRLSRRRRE
In words: EMSA; no noticeable effect versus WT; EMSA: 25 mM Tris-Cl pH 7.5, 100 mM NaCl, 5% glycerol, 1 mM DTT, room temperature 40 min; 0.8 uM forked DNA or 0.3 uM bubble DNA; 4% TBE native gel, ethidium bromide. The conditions noted are these: protein: recombinant; tags: N-terminal His8 (removed); 32 nt strands, blunt, internal 5 nt T:T mismatch bubble.

The target of series [3] is T1, StXPB;StBax1ΔC. Briefly: crystal structure 3.55 Å; 10 mM MgCl2, MES pH 5.3, MPD; ATP-free; EMSA: 25 mM Tris-Cl pH 7.5, 100 mM NaCl, 5% glycerol, 1 mM DTT, room temperature 40 min; 0.8 uM forked DNA or 0.3 uM bubble DNA; 4% TBE native gel, ethidium bromide. The conditions noted are these: protein: recombinant;recombinant; tags: N-terminal His8 (PreScission; removed);none stated (pET15b; copurified with His8-XPB); copies: 1;1; 24 bp with 6 nt unpaired region; 6 bp short arm unwound in crystal.

The record followed here is article PMC7672443, “Structural basis of the XPB helicase–Bax1 nuclease complex interacting with the repair bubble DNA” (Nucleic Acids Research, 2020).

B1: forked DNA (dsDNA)
DNA 1: TAGTCACAGCTGATTGCGCTCTGCTCCATAGT
DNA 2: TGATACTTCGAGAGCGCAATCAGCTGTGACTA
Take B1: the binding result (in the series with StXPB;StBax1ΔC [1]; in the series with StXPB;StBax1; in series [2]) was “binds” in each case.

B2: bubble-5 DNA (dsDNA)
DNA 1: TAGTCACAGCTGATTTTTCTCTGCTCCATAGT
DNA 2: ACTATGGAGCAGAGTTTTTTCAGCTGTGACTA
Regarding B2, the binding result in the series with StXPB F278A was “binds”.

B3: bubble-6 DNA (crystal) (dsDNA)
DNA 1: TTGACTCAACATCCTTTGCTACAA
DNA 2: ATTGTAGGTTTCCATGTTGAGTCA
In the case of B3, the binding result with StXPB;StBax1ΔC [3] is listed as “binds”.
